Consider 17 sequences from the DeepSol protein solubility set.

This data set can be described thus: soluble on expression in E. coli; label from the status in PepcDB or PDB records.
With “CSLIPDYQRPEAPVAAAYPQGQAYGQNTGAAAVPAADIGWREFFRDPQLQQLIGVALENNRDLRVAALNVEAFRAQYRIQRADLFPRIGVDGSGTRQRLPGDLSTTGSPAISSQYGVTLGTTAWELDLFGRLRSLRDQALEQYLATEQAQRSAQTTLVASVATAYLTLKADQAQLQLTKDTLGTYQKSFDLTQRSYDVGVASALDLRQAQTAVEGARATLAQYTRLVAQDQNALVLLLGSGIPANLPQGLGLDQTLLTEVPAGLPSDLLQRRPDILEAEHQLMAANASIGAARAAFFPSISLTANAGTMSRQLSGLFDAGSGSWLFQPSINLPIFTAGSLRASLDYAKIQKDINVAQYEKAIQTAFQEVADGLAARGTFTEQLQAQRDLVKASDEYYQLADKRYRTGVDNYLTLLDAQRSLFTAQQQLITDRLNQLTSEVNLYKALGGGWNQQTVTQQQTAKKEDPQAHHHHHH”, the “soluble on expression in E. coli” value is “soluble”.

Take “MGSDKIHHHHHHMVSSSAKLHDPEEGSAANFPDIDNLKIAFGQLPSGVVIVTSQGCGGEMVGATVSSFASLSFTPPLVMLGLAQSSTTLSAILDHGHFAVHVVAEPQQDIAMRFASSRADKFSDIDFKLSPSGVPILSEFDTCFHCALERAQSAGDHQLLIGRIVDVSTVERDTTPVAWFNRRFHICEPRALV”: the “soluble on expression in E. coli” value is “not soluble”.

Take “MNVLKLTNGREISYLNEVEIRMGIDELNGEERYKKELENMETSDITVHKYEGGFKIWECTVDLCDYIEENQTLFAGKSVLELGCGAALPSILTAVHGAKEVFAQDFNASVIEFFTLPNFEENPHSAVVQGEAMGWEEVPNRLSGRKFDFILSSETIYNEDDYQALHDAVAATIKDDGVAWFAAKFFYFGVGGSVPAFCEFINQRGILQASEAKVIAASVPRRIVEIRKK”: the “soluble on expression in E. coli” value was “not soluble”.

As to “EMEPEEERIRYSQRLRGTMRRRYEDDGISDDEIEGKRTFDLEEKLHTNKYNANFVTFMEGKDFNVEYIQRGGLRDPLIFKNSDGLGIKMPDPDFTVNDVKMCVGSRRMVDVMDVNTQKGIEMTMAQWTRYYETPEEEREKLYNVISLEFSHTRLENMVQRPSTVDFIDWVDNMWPRHLKESQTESTNAILEMQYPKVQKYCLMSVRGCYTDFHVDFGGTSVWYHIHQGGKVFWLIPPTAHNLELYENWLLSGKQGDIFLGDRVSDCQRIELKQGYTFVIPSGWIHAVYTPTDTLVFGGNFLHSFNIPMQLKIYNIEDRTRVPNKFRYPFYYEMCWYVLERYVYCITNRSHLTKEFQKESLSMDLELNGLESGNGDEEAVDREPRRLSSRRSVLTSPVANGVNLDYDGLGKTCRSLPSLKKTLAGDSSSDCSRGSHNGQVWDPQCAPRKDRQVHLTHFELEGLRCLVDKLESLPLHKKCVPTGIEDEDALIADVKILLEELANSDPKLALTGVPIVQWPKRDKLKFPTRPKVRVPTIPITKPHTMKPAPRLTPVRPAAASPIVSGARRRRVRCRKCKACVQGECGVCHYCRDMKKFGGPGRMKQSCVLRQCLAPRLPHSVTCSLCGEVDQNEETQDFEKKLMECCICNEIVHPGCLQMDGEGLLNEELPNCWECPKCYQEDSSEKAQKRKMEESDEEAVQAKVLRPLRSCDEPLTPPPHSPTSMLQLIHDPVSPRGMVTRSSPGAGPSDHHSASRDERFKRRQLLRLQATERTMVREKENNPSGKKELSEVEKAKIRGSYLTVTLQRPTKELHGTSIVPKLQAITASSANLRHSPRVLVQHCPARTPQRGDEEGLGGEEEEEEEEEEEDDSAEEGGAARLNGRGSWAQDGDESWMQREVWMSVFRYLSRRELCECMRVCKTWYKWCCDKRLWTKIDLSRCKAIVPQALSGIIKRQPVSLDLSWTNISKKQLTWLVNRLPGLKDLLLAGCSWSAVSALSTSSCPLLRTLDLRWAVGIKDPQIRDLLTPPADKPGQDNRSKLRNMTDFRLAGLDITDATLRLIIRHMPLLSRLDLSHCSHLTDQSSNLLTAVGSSTRYSLTELNMAGCNKLTDQTLIYLRRIANVTLIDLRGCKQITRKACEHFISDLSINSLYCLSDEKLIQKIS”, the “soluble on expression in E. coli” value was “soluble”.

As to “MLIQIDSNVLFANVDTLGNIVSTTTNGIGSAGKTTLDGHYSSISGFDQLGASHGAVIKGGIGSAMKTMQQLTEQVNWLKEALNSSRLAFSSQNNFVSRGMDIADEGGNVGGEEVVFPNRPDVVYEDFSFPQPVVQKASSIDELAAAFASTNDSEVEEAVATWKSLSEMATETSQDLRNVAAEVGEHNHGAVFDKAVERIGEIAANAESFAANASTMANHVGLMSQLKTMRMSDVLSAQQALSKIEDPMERKVLEEEFLSRLQSAIQSDVGQSVPVIRNLVTMRSTGGNSGQSIATGMETIAGNGKFSHTGLSSASGATLQPATMGQHPDNLGDFAAVNSRTGQSIDPFSLSTQQAGWTSPDFQPSAGGSSGLNPIKAPLTSAHSSMPASAQTVSTHPSSATGLGVTPIGPRADAMAMYPSANSKPHNSGLNGTSKIGGSSIAQLGASPQSGVSRSAAFGAAGTQSAHSARMSPMMGAPMGAAGSKKRGKTKSVTSSVEEDNNIAALLGESPAVVPGVIGSWVRG”, the “soluble on expression in E. coli” value is “not soluble”.

For the sequence “MAVELNQLRDQIDEVDKQMVELLARRLALVEQVGQVKSRYGLPIYAPDREAAMLASRRAEAESKGVPPQLIEDILRRTMRESYASEKDSGFKCLNPELRSVVIVGGNGQLGRLFGRMFKLSGYQVKVLGSQDWDKADELLSDAGLVVVTVPIHLTLGVIEKLRQLPDDCILCDLTSIKAKPLAAMLQVHKGPVVGLHPMFGPDVPSLAKQVIVYCDGRGNEHYQWLLQQFAIWGASLCQIDADEHDRGMTLIQALRHFTSFAYGLHLTKENPNLAQLLKLSSPIYRLELAMVGRLFGQDPHLYGDIILSSPENIEMIQRFHRCLSDAVELVSAGDKASFVAQFERVSQWFGDYSQQFMHESQNLLKQANDAIHRG”, the “soluble on expression in E. coli” value was “not soluble”.

Regarding “KGTSENKSTTATDTVQAEKPQSGTIHLTRAEFLKKIADYENHSKEWKYLGDKPAIVDFYADWCGPCKMVAPILEELSKEYAGKIYIYKVNVDKEPELARDFGIQGIPTIWFVPMKGEPQVNMGALSKEQLKGYIDKVLLKQ”, the “soluble on expression in E. coli” value was “soluble”.

Consider “MRLKDLGERALLARLAPLGYPPEAPLPPGDDAGGVWAEGRAWLLKTDGFLYREVALKGMGPFEVGFRGVAATASDLLAKMGRPLGFTLGLFLPEDLEEGFVLELVRGAAEAAKRLGAFLLGGDTNRGVEVALTVSGYALAEAPLPRKALPGDLLYLAGDRWGRTGAAIRAHYEGRSLEGFPKIREAAFYPLPRLELLALSGLLRGSLDSSDGLAETLWQLADLGVGVEVEALPLYPDVLAFAGSEEAALELVLYGGEEFEAVLVVPQEGAAAVEARAKAKGLPLFRAGRVVAGEGVYLRGAPLPRKGYAHF”, for which the “soluble on expression in E. coli” value is reported as “soluble”.

For the sequence “MAEVHVRELKGWEEMEEVVALQREVWGRAESDLVPRGLLVAVQDEGGLVAGAFAEGRMVGFVFGFPTKDPALHHSHMLGVLEAYRGTGAALLLKRFQRDWCLARGVRRVVWTFDPMRGVNANFNLRKLGATAKTYLPDHYGPMSGINAGAPSDRLLAEWDLLSERVYARLYAPPPEPEVAGLPQANRVEGEVPLEARLDLEAERLLFQIPEDWGRILREDPALALKWREHSRLVLPHYFARGYRLVDLVRHPNRYVLAKD”, the “soluble on expression in E. coli” value is given as “soluble”.

Turning to “MSVIHPLQNLLTSRDGSLVFAIIKNCILSFKYQSPNHWEFAGKWSDDFDKIQESRNTTAKEQQGQSSENENENKKLKSNKGDSIKRTAAKVPSPGLGAPPIYSYIRNLRLTSDESRLIACADSDKSLLVFDVDKTSKNVLKLRKRFCFSKRPNAISIAEDDTTVIIADKFGDVYSIDINSIPEEKFTQEPILGHVSMLTDVHLIKDSDGHQFIITSDRDEHIKISHYPQCFIVDKWLFGHKHFVSSICCGKDYLLLSAGGDDKIFAWDWKTGKNLSTFDYNSLIKPYLNDQHLAPPRFQNENNDIIEFAVSKIIKSKNLPFVAFFVEATKCIIILEMSEKQKGDLALKQIITFPYNVISLSAHNDEFQVTLDNKESSGVQKNFAKFIEYNLNENSFVVNNEKSNEFDSAIIQSVQGDSNLVTKKEEIYPLYNVSSLRKHGEHYSHHHHHH”, the “soluble on expression in E. coli” value is recorded as “soluble”.

On to “SSTTTGPEAAPKPSAKSIYEQRKRYSTVVMADVSQYHVNHLVTFCLGEEDGVHTVEDASRKLAVMDSQGRVWAQEMLLRVSPSQVTLLDPVSKEELESYPLDAIVRCDAVMPRGRSRSLLLLVCQEPERAQPDVHFFQGLLLGAELIREDIQGALQNYRSGRGERRAAALRATQEELRRGASPAAETPPLQRRPSVRLVINTVEPSAVRGRPQVESIPETEEARKPDQARTTSSADPTSPDLGPRGPELAGLQAERDVDILNHVFDDVESFVSRLQKSAEATRVLEHRERGRRTRRRAAGEGLLTLRAKPPTEAEYTDVLQKIKYAFSLLARLRGNIANPSSPELLHFLFGPLQMIVNTSGGPEFAKSVRRPHLTLEAVTLLRDNVTPGENELWTSLGDSWTCPGVELPPEEGSPYSPEFYNGWEPPATDPQGRPWEDPVEKQLQHEKRRRQQSAPQVAVNGKIQNWKLSPS”, for which the “soluble on expression in E. coli” value is recorded as “soluble”.

In the case of “GSHMKNSVSVDLPGSMKVLVSKSSNADGKYDLIATVDALELSGTSDKNNGSGVLEGVKADASKVKLTISDDLGQTTLEVFKSDGSTLVSKKVTRADGTRLEYTGIKSDGSGKAKEVLKGYVLEGTLTAEKTTLVVKEGTVTLSKNISKSGEVSVELNDTDSSAATKKTAAWNSGTSTLTITVNSKKTKDLVFTSSNTITVQQYDSNGTSLEGSAVEITKLDEIKNALK”, the “soluble on expression in E. coli” value is listed as “soluble”.

For the sequence “MLAQQRLDFEFRPMTAADVGNAHELSIALKWPHRLEDWAMLQRVAQGFVAVRNGRLIGSAFACHQGEFSTIGLVIVSDDYQGKGIGRKLMELAVGSIPPRTAILNATLAGAPLYEKMGFVSFGEIQQRQGQAQLPDATLLTAEESCRVLSEADHDRVLELGNAGSGLDRSVTLGDLLNNLEHAVGIDRDGQLQAFALLRPFGRGLCIGPVVAQTVEQARHMIEHLLARVPYAFVRIDIPTHCGLADWLEAAGLKRVDSVTCMSMGAVPQAREGVSQFALITQAIG”, the “soluble on expression in E. coli” value was “not soluble”.

“MSLKTFTDRWRQLEWDDIRLRINGKTAADVERALNAAHLSRDDLMALLSPAAADYLEPIAQRAQRLTRQRFGNTVSFYVPLYLSNLCANDCTYCGFSMSNRIKRKTLDEVDIQRECDAIRKLGFEHLLLVTGEHQAKVGMDYFRRHLPTIRRQFSSLQMEVQPLSQENYAELKTLGIDGVMVYQETYHEAIYAQHHLKGKKQDFFWRLETPDRLGRAGIDKIGLGALIGLSDNWRVDCYMVAEHLLWMQKHYWQSRYSVSFPRLRPCTGGVEPASVMDEKQLVQTICAFRLLAPEIELSLSTRESPWFRDHVIPLAINNVSAFSKTQPGGYADDHPELEQFSPHDARRPETVASALSAQGLQPVWKDWDSWLGRASQTREGHHHHHH”: the “soluble on expression in E. coli” value is given as “not soluble”.

Consider “MGSDKIHHHHHHMRKLIFIAFMVMSVCGYAQKYEVGTTTAVWKAPAAADFLHAKAIGVKYVEVAFNQCYRGVPVDEVIPRIKEMKAKIDSADIEVWSIHLPFSRTLDISVLDDRLRKENVDFMAEMIELCAMFQPTCLVLHPSSEPIADSIRAQRIANASESIAYLKKYADRIGAQLCIENLPRTCLGNTPEELMRIVGDIPDVKVCFDTNHYTKGTTEHFVAIVGSRIGTIHASDFDLVNECHWLPTQGNIKWGKLMQDLEKTGYKGVFMYEATKDHENNNVRPALERIAETFDKITDDYKTLK”, for which the “soluble on expression in E. coli” value is “not soluble”.

As to “MGDTGKLGRIIRHDAFQVWEGDEPPKLRYVFLFRNKIMFTEQDASTSPPSYTHYSSIRLDKYNIRQHTTDEDTIVLQPQEPGLPSFRIKPKDFETSEYVRKAWLRDIAEEQEKYAAERD”, the “soluble on expression in E. coli” value was “soluble”.

In the case of “AIASARVRSRSRGRGDGQEAPDVVAFVAPGESQQEEPPTDNQDIEPGQEREGTPPIEERKVEGDCQEMDLEKTRSERGDGSDVKEKTPPNPKHAKTKEAGDGQP”, the “soluble on expression in E. coli” value is “soluble”.
